In patent publication US20150098939A1 (Sanofi, published 2015):

T1: human GPVI protein, soluble extracellular domain (D1 and D2) (human, UniProt Q9HCN6 21-267)
T1 construct: extracellular domain; also called hGPVI; human glycoprotein VI
T1 sequence (looked up): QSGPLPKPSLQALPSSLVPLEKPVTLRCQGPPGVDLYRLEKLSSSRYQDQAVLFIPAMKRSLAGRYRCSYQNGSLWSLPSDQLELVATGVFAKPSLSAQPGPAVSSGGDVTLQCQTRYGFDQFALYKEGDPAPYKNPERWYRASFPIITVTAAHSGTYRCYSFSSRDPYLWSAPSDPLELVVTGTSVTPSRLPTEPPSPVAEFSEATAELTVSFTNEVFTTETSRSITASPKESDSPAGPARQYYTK

T2: human GPVI on platelets (human, UniProt Q9HCN6 21-339)
T2 sequence (looked up): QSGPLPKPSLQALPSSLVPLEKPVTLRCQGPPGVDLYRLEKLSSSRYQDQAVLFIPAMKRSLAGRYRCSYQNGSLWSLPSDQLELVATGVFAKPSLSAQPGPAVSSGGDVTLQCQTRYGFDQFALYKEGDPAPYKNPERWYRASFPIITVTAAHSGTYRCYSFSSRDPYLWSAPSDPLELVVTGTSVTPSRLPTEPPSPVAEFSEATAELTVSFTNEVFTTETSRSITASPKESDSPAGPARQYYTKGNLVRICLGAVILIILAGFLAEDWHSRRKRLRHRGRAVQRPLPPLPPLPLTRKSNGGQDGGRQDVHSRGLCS


How the values were obtained:
[1] = biological target: T1, human GPVI protein, soluble …; assay: SPR (Biacore 3000), human GPVI immobilised, Fab analyte
Procedure: Surface plasmon resonance technology on a Biacore 3000 (GE Healthcare) was used for detailed kinetic characterisation of purified antibody fragments. An assay with immobilised human GPVI was used. Typically, 300 RU of GPVI were immobilised on a research grade CM5 chip by amine reactive coupling, resulting in an Rmax of 200 RU for the bound antibody fragment. Binding kinetics were measured over a concentration range between 3.2 to 112 nM in HBS-EP (10 mM HEPES pH 7.4, 150 mM NaCl, 3 mM EDTA, 0.005% Surfactant P20) at a flow rate of 30 μl/min. Chip surfaces were regenerated with 10 mM glycine pH2.0. Kinetic parameters were analysed and calculated in the BIAevaluation program package (version 4.1) using a flow cell without immobilised GPVI as reference. A 1:1 binding model with mass transfer was applied for a global fit of the data for curves corresponding to analyte concentrations from 3-56 nM of Fab fragment.
Note that the Biacore assay used to measure the data in this example is different in terms of immobilized binding partner (GPVI versus the mAb/Fab fragment) and this leads to the different Biacore affinities as reported in Table 5.

hGPVI-hFc fusion protein [2] = biological target: T3, hGPVI-hFc fusion protein (human); assay: DELFIA competition assay: Fab preincubated with GPVI-Fc (3 µg/ml), binding to collagen-coated plate, Test 1
T3 construct: also called GPVI-Fc; human GPVI-Fc fusion protein
Procedure: (§1) Collagen coated 384 well plates (Pierce) were blocked with 3% BSA for 2 h. Increasing concentrations of anti GPVI Fab fragments (0.3-20 μg/ml) were incubated with recombinant GPVI (Fusion protein of the extracellular domain of GPVI and Fc-Part of human IgG; 3 μg/ml). The GPVI-Fab mixture was added to collagen coated plates and incubated for 1 h at RT. 384 well plates were washed (DELFIA wash buffer, Perkin Elmer) five times and Eu-labelled anti-human IgG (100 ng/ml Perkin Elmer) was added. Following 1 h incubation at room temperature plates were washed again five times, enhancement solution (Perkin Elmer) was added and incubated for 10 min. Fluorescence was detected at 360/612 nm using a Tecan Ultra reader. Shown in Table 15 are examples of the inhibitory effect of recombinantly produced anti-GPVI Fab fragments on GPVI collagen binding.

human GPVI on platelets = biological target: T2, human GPVI on platelets; assay: cell-based or functional assay
hGPVI-hFc fusion protein [3] = biological target: T3, hGPVI-hFc fusion protein; assay: DELFIA competition assay: Fab preincubated with GPVI-Fc (3 µg/ml), binding to collagen-coated plate, Test 3
Procedure: as §1

hGPVI-hFc fusion protein [4] = biological target: T3, hGPVI-hFc fusion protein; assay: DELFIA competition assay: Fab preincubated with GPVI-Fc (3 µg/ml), binding to collagen-coated plate, Test 2
Procedure: as §1

Kd [1]	koff [1]	kon [1]	IC50 (hGPVI-hFc fusion protein [2])	IC50 for inhibition of collagen induced platelet aggregation (human PRP), Test 1 (human GPVI on platelets)	IC50 for inhibition of collagen induced platelet aggregation (human PRP), Test 2 (human GPVI on platelets)	IC50 for inhibition of collagen induced platelet aggregation (human PRP), Test 3 (human GPVI on platelets)	IC50 (hGPVI-hFc fusion protein [3])	IC50 (hGPVI-hFc fusion protein [4])	Binder
0.4 nM	3e-05 s⁻¹	81000 M⁻¹ s⁻¹	1.41 µg/mL	1.9 µg/mL	2.3 µg/mL	1.2 µg/mL	1.24 µg/mL	1.58 µg/mL	humanized anti-GPVI Fab VL1/VH5 (Fab, V domains shown, Recombinant Fab: VH fused to CH1 of human IGHG1 (Q569F4), HC ends in DKTHT; VL fused to human constant kappa (Q502W4); also called VL1 with VH5) VH: QVQLQESGPGLVAPSQSLSITCTVSGFSLTGYGVNWVRQPPSRGLEWLGMIWGDGSTDYQSTLKSRLSISKDNSKSQVFLKMNSLTTDDTARYYCARDLPMDEWGQGTSVTVSS VL: DIQMTQSPSSLSASVGGRVTITCKASQDINKYIAWYQHKPGKGPSLLIHYTSTLQPGVPSRFSGSGSGRDYSFSISNLQPEDIATYYCLQYANLLTFGGGTKLEIKR
0.3 nM	3e-05 s⁻¹	108000 M⁻¹ s⁻¹	0.81 µg/mL	1.4 µg/mL	2.4 µg/mL	2.3 µg/mL	1.05 µg/mL	0.73 µg/mL	humanized anti-GPVI Fab VL2/VH2 (Fab, V domains shown, Recombinant Fab: VH fused to CH1 of human IGHG1 (Q569F4), HC ends in DKTHT; VL fused to human constant kappa (Q502W4); also called VL2 with VH2) VH: QVQLQESGPGLVAPSQSLSITCTVSGFSLTGYGVNWVRQPPSRGLEWLGMIWGDGSTDYQSTLKSRLSISKDNSKSQVFLKMNSLTTDDTARYYCARDLPMDYWGQGTSVTVSS VL: DIQMTQSPSSLSASVGGRVTITCKASQDINKYIAWYQHKPGKGPSLLIHYTSTLQPGVPSRFSGSGSGRDYSFSISNLQPEDIATYYCLQYAHLLTFGGGTKLEIKR
0.1 nM	2e-05 s⁻¹	148000 M⁻¹ s⁻¹	0.63 µg/mL	1.7 µg/mL	1.5 µg/mL	1.5 µg/mL	0.87 µg/mL	1.24 µg/mL	humanized anti-GPVI Fab VL1/VH3 (Fab, V domains shown, Recombinant Fab: VH fused to CH1 of human IGHG1 (Q569F4), HC ends in DKTHT; VL fused to human constant kappa (Q502W4); also called VL1 with VH3) VH: EVQLLESGPGLVAPSGSLSITCTVSGFSLTGYGVNWVRQPPGKGLEWLGMIWGDGSTDYQSTLKSRLSISKDNSKSQVFLKMNSLRTDDTARYYCARDLPMDYWGLGTSVTVSS VL: DIQMTQSPSSLSASVGGRVTITCKASQDINKYIAWYQHKPGKGPSLLIHYTSTLQPGVPSRFSGSGSGRDYSFSISNLQPEDIATYYCLQYANLLTFGGGTKLEIKR

Continued, binder first:

Binder	Kd [1]	koff [1]	kon [1]	IC50 (hGPVI-hFc fusion protein [2])	IC50 for inhibition of collagen induced platelet aggregation (human PRP), Test 1 (human GPVI on platelets)	IC50 for inhibition of collagen induced platelet aggregation (human PRP), Test 2 (human GPVI on platelets)	IC50 for inhibition of collagen induced platelet aggregation (human PRP), Test 3 (human GPVI on platelets)	IC50 (hGPVI-hFc fusion protein [3])	IC50 (hGPVI-hFc fusion protein [4])
humanized anti-GPVI Fab VL3/VH2 (Fab, V domains shown, Recombinant Fab: VH fused to CH1 of human IGHG1 (Q569F4), HC ends in DKTHT; VL fused to human constant kappa (Q502W4); also called VL3 with VH2) VH: QVQLQESGPGLVAPSQSLSITCTVSGFSLTGYGVNWVRQPPSRGLEWLGMIWGDGSTDYQSTLKSRLSISKDNSKSQVFLKMNSLTTDDTARYYCARDLPMDYWGQGTSVTVSS VL: DIQMTQSPSSLSASVGGRVTITCKASQDINKYIAWYQHKPGKGPSLLIHYTSTLQPGVPSRFSGSGSGRDYSFSISNLQPEDIATYYCLQYALLLTFGGGTKLEIKR	0.2 nM	3e-05 s⁻¹	132000 M⁻¹ s⁻¹	0.67 µg/mL	1.9 µg/mL	0.9 µg/mL	2.1 µg/mL	1.04 µg/mL	0.9 µg/mL
humanized anti-GPVI Fab VL3/VH4 (Fab, V domains shown, Recombinant Fab: VH fused to CH1 of human IGHG1 (Q569F4), HC ends in DKTHT; also called VL3 with VH4) VH: QVQLQESGPGLVAPSQSLSITCTVSGFSLTYYGVNWVRQPPSRGLEWLGMIWGDGSTDYQSTLKSRLSISKDNSKSQVFLKMNSLTTDDTARYYCARDLPMDYWGQGTSVTVSS VL: DIQMTQSPSSLSASVGGRVTITCKASQDINKYIAWYQHKPGKGPSLLIHYTSTLQPGVPSRFSGSGSGRDYSFSISNLQPEDIATYYCLQYALLLTFGGGTKLEIKR	0.3 nM	4e-05 s⁻¹	151000 M⁻¹ s⁻¹	0.72 µg/mL	1 µg/mL	2.3 µg/mL	2 µg/mL	1.02 µg/mL	0.72 µg/mL
